Experimental findings from PMC5589886 are described below.

For assay [1], the target named is relaxin family peptide receptor-1 (human) (UniProt Q9HBX9).
Assay [2] shares this target. This is another data set of the same source.
Assay [3] has the same target. The source holds these as a separate data set.

Chain of UniProt Q9HBX9 (Q9HBX9 whole entry): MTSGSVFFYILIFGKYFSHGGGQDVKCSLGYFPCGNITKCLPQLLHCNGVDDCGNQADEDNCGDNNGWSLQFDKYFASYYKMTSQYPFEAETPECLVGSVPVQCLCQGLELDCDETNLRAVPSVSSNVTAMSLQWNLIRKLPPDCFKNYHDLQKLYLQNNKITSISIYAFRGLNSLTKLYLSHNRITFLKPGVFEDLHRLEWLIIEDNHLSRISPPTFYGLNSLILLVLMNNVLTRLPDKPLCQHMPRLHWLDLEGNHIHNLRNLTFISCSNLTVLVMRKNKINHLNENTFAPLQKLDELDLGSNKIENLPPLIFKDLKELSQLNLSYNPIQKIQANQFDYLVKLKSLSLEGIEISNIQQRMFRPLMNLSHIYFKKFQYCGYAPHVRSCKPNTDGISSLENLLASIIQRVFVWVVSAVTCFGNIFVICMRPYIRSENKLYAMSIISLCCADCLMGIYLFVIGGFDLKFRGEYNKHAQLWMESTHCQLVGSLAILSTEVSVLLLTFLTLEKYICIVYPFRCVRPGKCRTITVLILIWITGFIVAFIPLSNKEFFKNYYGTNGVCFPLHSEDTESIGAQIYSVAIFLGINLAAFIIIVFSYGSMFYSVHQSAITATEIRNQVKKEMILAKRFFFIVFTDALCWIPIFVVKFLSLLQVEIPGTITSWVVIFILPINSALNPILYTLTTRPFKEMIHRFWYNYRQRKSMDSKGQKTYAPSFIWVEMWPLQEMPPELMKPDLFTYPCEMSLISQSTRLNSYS

Turning to human relaxin-2 (ligand), the cAMP generation (TR-FRET Lance cAMP immunoassay), mean pEC50 of H2-RLX in HEK293 cells transduced with RXFP1 BacMam at 0.5%, 5% and 10% v/v (pEC50 9.7, 10.2 and 11.3) in assay [1] was 11.3 pEC50. Also, in assay [2], the cAMP response of LX-2 cells (endogenous RXFP1) to 60 min H2-RLX after 40 h culture on plastic, mean pEC50 (n = 7) turned out to be 9.1 pEC50 and the cAMP response of primary hHSCs (endogenous RXFP1) to 60 min H2-RLX after 40 h culture, mean pEC50 across three patient samples was found to be 9 pEC50. In assay [3], this substance yielded a cAMP response, representative H2-RLX dose response in LX-2 cells (endogenous RXFP1), pEC50 of 8.8 pEC50 and a cAMP response, representative H2-RLX dose response in hHSCs (endogenous RXFP1), pEC50 of 9.3 pEC50.
